Assay results from patent US20230103407A1 (UNIVERSITY OF CINCINNATI, published 2023).

T1: acid β-glucosidase (GCase), Velaglucerase alfa (human, UniProt P04062 40-536, Chain 1 is a glycoprotein with N-linked, mannose-terminated oligosaccharides, which the letters do not carry.)
T1 construct: also called free GCase; human GCase
T1 sequence: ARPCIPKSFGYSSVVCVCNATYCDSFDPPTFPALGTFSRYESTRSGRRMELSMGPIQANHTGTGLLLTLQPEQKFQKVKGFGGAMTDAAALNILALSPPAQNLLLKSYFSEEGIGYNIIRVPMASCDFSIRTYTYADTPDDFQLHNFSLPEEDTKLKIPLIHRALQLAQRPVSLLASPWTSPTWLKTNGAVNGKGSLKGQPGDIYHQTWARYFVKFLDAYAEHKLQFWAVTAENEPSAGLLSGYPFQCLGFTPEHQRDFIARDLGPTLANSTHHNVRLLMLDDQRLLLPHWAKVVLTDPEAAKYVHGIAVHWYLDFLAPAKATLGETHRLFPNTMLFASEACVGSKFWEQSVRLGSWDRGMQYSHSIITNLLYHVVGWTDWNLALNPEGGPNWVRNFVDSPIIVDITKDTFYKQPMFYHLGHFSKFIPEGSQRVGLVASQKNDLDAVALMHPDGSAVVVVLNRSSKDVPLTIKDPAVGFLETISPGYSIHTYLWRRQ

B1: SapC-DOPS nanovesicles (saposin C with dioleoylphosphatidylserine) (other)
chain: SDVYCEVCEFLVKEVTKLIDNNKTEKEILDAFDKMCSKLPKSLSEECQEVVDTYGSSILSILLEEVSPELVCSMLHLCSG
B2: saposin B (SapB)-DOPS (other, UniProt P07602 195-273, looked up)
chain: GDVCQDCIQMVTDIQTAVRTNSTFVQALVEHVKEECDRLGPGMADICKNYISQYSEIAIQMMMHMQPKEICALVGFCDE
notes: SapB formulated with DOPS at a 1:7 molar ratio and labelled with NBD-PS

What was measured:
[1] = target: T1, acid β-glucosidase (GCase), …; test: microscale thermophoresis (MST); unlabelled GCase titrated against NBD-PS labelled SapC-DOPS, CP buffer pH 5.6
Procedure: (§1) Binding was determined by measuring Kd using a Microscale Thermophoresis (MST) assay system on a Monolith NT.115. MicroScale NanoTemper. Temperature related intensity change (TRIC) together with thermophoresis contribution to the variation of fluorescence intensity was determined. NBD-PS [2-(4-nitro-2,1,3-benzoxadiazol-7-yl)aminoethyl-phophatidylserine (Avanti Polar Lipids Inc., Alabaster, Ala.) was used to fluorescently label DOPS. DOPS in chloroform was mixed with NBD-PS in DMSO at the molar ratio of 3:1. The organic solvent was evaporated under nitrogen gas. Upon suspension in CP buffer (0.1 M Citrate Phosphate buffer, pH 5.6), the mixture solutions were bath sonicated for 30 mins at 4° C. This preparation was tested with SapC or SapB to measure the Kd for binding to DOPS. […]
(§2) The final concentration of the reaction mixtures ranged from GCase/SapC-DOPS-NBD of 1562 nM/7500 nM for the 1st point to 0.024 nM/7500 nM for the 16th point (FIG. 16, Table 3). […] The thermophoresis time was 30 secs with dual reading setting (LED: 20%/40%; MST: 40%/50%). […] The raw data were analyzed to determine Kd values and plotted using MO Affinity Analysis v2.1.3 software (NanoTemper, München, Germany).

[2] = target: T1, acid β-glucosidase (GCase), …; test: microscale thermophoresis (MST), NBD-PS labelled vesicles, CP buffer pH 5.6
Procedure: as §1, §2

| Binder | Kd [1] [nM] | binding result [2] |
| --- | --- | --- |
| B1 | 29.4 |  |
| B2 |  | no binding |
